Biological target: ubiquitinated proteins of yeast cells
Assay: Flag purification from yeast cells, anti-Ub immunoblot

reduction in the amount of ubiquitinated protein recovered, against Flag-Rad23 | interaction remaining, compared to the wildtype protein | Substance
80% | – | Flag-rad23^uba1 (yeast Rad23 L183A, amino-terminal Flag epitope) (from UniProt P32628 1-398)
– | 1% | Flag-rad23^Δuba1 (yeast Rad23 with residues 141-190 removed, amino-terminal Flag epitope) (from UniProt P32628 1-140; P32628 191-398)
